Data from paper PMC7453904, “Intrahepatic heteropolymerization of M and Z alpha-1-antitrypsin” (JCI Insight, 2020).
Each block holds one molecule with its values, some of them ahead of it.

Tests used:
[1] = biological target: Z A1AT subunit of MZ heterozygote liver polymers (human (endogenous in liver tissue)); experiment: negative-stain electron microscopy of liver polymers; polymers formed in vivo, extracted from inclusion bodies of explant liver and purified; imaged with and without Fab2H2, which marks M subunits; subunits counted
[2] = biological target: T1, plasma-purified monomeric native M alpha-1-antitrypsin (Homo sapiens (Human)., UniProt P01009); experiment: SPR; Biacore T100; mAb2H2 amine-coupled to a CM5 chip; A1AT analytes 0–2 μM in PBS with 0.05% v/v Tween-20 at 30 μL/min; maximal responses fit by a hyperbolic function; settings: both partners purified
T1 construct: Plasma glycoprotein; also called M A1AT; native M A1AT
T1 sequence (P01009 25-418): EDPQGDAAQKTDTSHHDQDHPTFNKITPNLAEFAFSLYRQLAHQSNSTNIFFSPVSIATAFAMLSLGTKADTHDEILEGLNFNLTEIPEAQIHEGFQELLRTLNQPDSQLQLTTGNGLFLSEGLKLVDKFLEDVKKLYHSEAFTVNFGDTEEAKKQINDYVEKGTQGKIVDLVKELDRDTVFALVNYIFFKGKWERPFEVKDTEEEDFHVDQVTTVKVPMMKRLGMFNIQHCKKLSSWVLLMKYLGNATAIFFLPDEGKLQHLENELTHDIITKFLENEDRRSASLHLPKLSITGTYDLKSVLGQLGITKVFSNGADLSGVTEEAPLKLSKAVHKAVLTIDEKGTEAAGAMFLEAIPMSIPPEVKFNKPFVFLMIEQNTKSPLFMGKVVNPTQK

Molecule: Z A1AT subunit of MZ heterozygote liver polymers (natural protein)
mean length in subunits of circular polymers without a detectable M component [1]: 6.6 subunits
mean length in subunits of linear polymers without a detectable M component [1]: 6.5 subunits

Kd [2]: 447 nM
B1: monoclonal antibody mAb2H2 (antibody, V domains shown)
VH: EVQLEESGGGLVKPGGSLKLSCAASGFAFSIYDMSWVRQTPEKRLEWVAYISSGGGTTYYPDTVKGRFTISRDNAKNTLYLQMSSLKSEDTAIYYCARHAGVHYWGQGTTLTVSS
VL: DIVMTQSPSSMYASLGERVTITCKASQDINSYLSWFQQKPGKSPKNLIYRANRLVDGVPSRFSGSGSGQDYSLTISSLEYEDMGIYYCLQYDEFPWTFGGGTKLESK
notes: Whole mouse monoclonal antibody; Raised against heat-induced and denaturant-induced polymers of plasma A1AT; also called clone 2H2; source: hybridoma from splenocytes of immunized BALB/c mice; in culture medium (screen) and purified (HiTrap Protein G)
